Data on 1 molecule can be found in PMC11665464, “The molecular chaperone ALYREF promotes R-loop resolution and maintains genome stability”.

The data set concerns the target ALYREF-ΔRRM (human, UniProt Q86V81 1-257, del108-179). Description: EMSA; 35 mM Tris-HCl pH 7.5, 1 mM DTT, 100 ug/ml BSA, 1 mM MgCl2, 100 mM KCl, 10 min at 30 C; 5 nM nucleic acid; gel at 4 C. The following applies: protein: recombinant; tags: His6; label: 32P; three-strand 5' RNA flap; RNA and DNA2 share the complement on DNA1. A general note: Mobility shift assays separate free from complexed probe on a gel.

B1: 5' RNA-DNA flap (R-Flap, migratable R-loop mimic) (mixed)
DNA 1: ACGCTGCCGAATTCTACCAGTGCCTTGCTAGGACATCTTTGCCCACCTGGTGGTGGGACC
DNA 2: GGTCCCACCACCAGGTGGGCAAAGATGTCCCAGCAAGGCACTGGTAGAATTCGGCAGCGT
RNA: GGUCCCACCACCAGGUGGGCAAAGAUGUCC
Regarding B1, the binding result is “binds”.
